Assay results: patent publication US9289468B2, “Fusion protein comprising circularly permuted form of trail/Apo2L, coding gene and use thereof” (Beijing Sunbio Biotech Co. Ltd., priority 2011, dated 2016)

B1: NCPT-3.M12: MG+His6+NCPT-3, SEQ ID NO: 16 (protein)
chain: MGHHHHHHTLSSPNSKNEKALGRKINSWESSRSGHSFLSNLHLRNGELVIHEKGFYYIYSQTYFRFQEEIKENTKNDKQMVQYIYKYTSYPDPILLMKSARNSCWSKDAEYGLYSIYQGGIFELKENDRIFVSVTNEHLIDMDHEASFFGAFLVGGGGGGVRERGPQRVAAHITGTRGRSNT
modifications: NCPT-3.M12 polypeptide sequence
B2: wtTRAIL: wild-type TRAIL (protein, UniProt P50591 1-281, looked up)
Tumor necrosis factor ligand …: MAMMEVQGGPSLGQTCVLIVIFTVLLQSLCVAVTYVYFTNELKQMQDKYSKSGIACFLKEDDSYWDPNDEESMNSPCWQVKWQLRQLVRKMILRTSEETISTVQEKQQNISPLVRERGPQRVAAHITGTRGRSNTLSSPNSKNEKALGRKINSWESSRSGHSFLSNLHLRNGELVIHEKGFYYIYSQTYFRFQEEIKENTKNDKQMVQYIYKYTSYPDPILLMKSARNSCWSKDAEYGLYSIYQGGIFELKENDRIFVSVTNEHLIDMDHEASFFGAFLVG
B3: NCPT-1.M7: MG+His9+NCPT-1, SEQ ID NO: 11 (protein)
chain: MGHHHHHHHHHTLSSPNSKNEKALGRKINSWESSRSGHSFLSNLHLRNGELVIHEKGFYYIYSQTYFRFQEEIKENTKNDKQMVQYIYKYTSYPDPILLMKSARNSCWSKDAEYGLYSIYQGGIFELKENDRIFVSVTNEHLIDMDHEASFFGAFLVGGGGGGRVAAHITGTRGRSNT
modifications: NCPT-1.M7 polypeptide sequence
B4: CPT: recombinant human circularly permuted TRAIL: amino acids 135-281, a linker, amino acids 122-135; SEQ ID NO: 1 (protein)
chain: TLSSPNSKNEKALGRKINSWESSRSGHSFLSNLHLRNGELVIHEKGFYYIYSQTYFRFQEEIKENTKNDKQMVQYIYKYTSYPDPILLMKSARNSCWSKDAEYGLYSIYQGGIFELKENDRIFVSVTNEHLIDMDHEASFFGAFLVGGGGGGVAAHITGTRGRSNT
modifications: CPT polypeptide sequence
B5: NCPT-1.M6: MG+His6+NCPT-1 with linker GGSGGGG, SEQ ID NO: 10 (protein)
chain: MGHHHHHHTLSSPNSKNEKALGRKINSWESSRSGHSFLSNLHLRNGELVIHEKGFYYIYSQTYFRFQEEIKENTKNDKQMVQYIYKYTSYPDPILLMKSARNSCWSKDAEYGLYSIYQGGIFELKENDRIFVSVTNEHLIDMDHEASFFGAFLVGGGSGGGGRVAAHITGTRGRSNT
modifications: NCPT-1.M6 polypeptide sequence
B6: NCPT-2.M11: MG+His6+NCPT-2, SEQ ID NO: 15 (protein)
chain: MGHHHHHHTLSSPNSKNEKALGRKINSWESSRSGHSFLSNLHLRNGELVIHEKGFYYIYSQTYFRFQEEIKENTKNDKQMVQYIYKYTSYPDPILLMKSARNSCWSKDAEYGLYSIYQGGIFELKENDRIFVSVTNEHLIDMDHEASFFGAFLVGGGGGGTSEETISTVQEKQQNISPLVRERGPQRVAAHITGTRGRSNT
modifications: NCPT-2.M11 polypeptide sequence

Tests used:
[1] = tested on: human multiple myeloma cell line U266; experiment: Combination with melphalan, cell survival (ATPlite); format: cell-based
Procedure: FIG. 9. […] U266 cells are insensitive to CPT. At the concentration of 1 μg/ml, NCPT-1.M1 alone has a mild killing effect on U266 (<20%), but with the presence of melphalan (12.5˜50 μg/ml), both of them can cause enhanced killing effect. The cell viability was assayed with ATPlite luminescent system (PerkinElmer), the data as shown in this figure are all represented as the mean±standard deviation, n=4, #P<0.05, ##P<0.01 vs. melphalan group; *P<0.05 vs. NCPT-1.M1 group.

[2] = tested on: NCI-H460 cells; experiment: Assay of killing activity on lung cancer cell line (crystal violet, IC50); format: cell-based, human; details: for Ratio of IC50 of mutants to IC50 of CPT (H460 cells): 20-24 hours, crystal violet; for killing activity compared to that of CPT: based on IC50
Procedure: The NCI-H460 cells (ATCC) were cultured in flasks until logarithmic growth phase, digested with 0.25% trypsin (Amresco), collected by centrifugation (1000 rpm, 5 min), resuspended in RPMI1640 medium (Invitrogen) containing 3% fetal bovine serum (FBS), counted and adjusted to 1.5×10^5/ml cell suspension, added into 96-well culture plates (Nunc) at 100 μl/well, and incubated at 37° C. in 5% CO2 incubator overnight. The sample to be tested was diluted to a certain concentration with 1640 medium containing 3% FBS, and further diluted at 4-fold dilutions (8 dilutions). The supernatant in the culture plate was discarded, and serial dilutions of the sample to be tested was added into the plate at 100 μl/well with a negative control and blank control set aside, incubated at 37° C. under 5% CO2 for 20-24 hours. Following examination under microscope, the supernatant was discarded, each well was added 50 μl 0.05% crystal violet solution (50 mg crystal violet was dissolved in 20 ml anhydrous ethanol, and water was added to the volume of 100 ml, then stored at room temperature) and stained for 3-5 minutes. The crystal violet was carefully washed with flowing water, the remaining water was removed by spin-drying, a destaining solution (50 ml distilled water, 50 ml anhydrous ethanol, and 0.1 ml glacial acetic acid were thoroughly mixed and stored at room temperature) was added at 100 μl/well, then the reading at OD570 was measured on a microplate reader (Bio-Rad 680) (reference wavelength of 630 nm). The inhibitory concentration 50 (IC50) of each sample was calculated by a four-parameter Logistic fitting using Sigmaplot10.0 software. The IC50 for CPT and each mutant of NCPT-1, NCPT-2, and NCPT-3 were calculated, and the activity change of each mutant was represented as a ratio of the IC50 of each mutant to that of CPT (Table 1).

[3] = tested on: human COLO 205 xenograft tumor; experiment: Inhibitory activity on human colon cancer xenograft tumors; format: in vivo, Balb/c nu mice
Procedure: 4 to 5 weeks old Balb/c nu mice ♂ (Institute of Experimental Animals, Chinese Academy of Medical Sciences) were subcutaneously inoculated with COLO 205 human colon tumor tissue pieces. When the tumor grew to the volume of 120 mm3, the tumor-bearing mice were divided into 4 groups (n=7/group), which were intraperitoneally injected with normal saline (negative control group), NCPT-1.M1 5 mg/kg, NCPT-1.M1 15 mg/kg and wtTRAIL 15 mg/kg once a day for 10 consecutive days. […] During the experiment, the tumor length diameter (a) and wide diameter (b) were measured every two days with a vernier caliper, and tumor volume (TV) was calculated according to the following formula: TV=½×a×b^2; From the above, the relative tumor volume (RTV) was calculated according to following formula: RTV=Vt/V0. Wherein V0 is the tumor volume measured on the day of the administration, but before administration (i.e., d0), and Vt is the tumor volume measured every time. The relative tumor proliferation rate T/C (%) is used as an evaluation index. Evaluation criteria: T/C (%)>40% means no effect; T/C (%)≦40% and the statistical significance of P<0.05 means being effective.
T/C %=RTVT/RTVC*100%. (RTVT: RTV of the treatment group; […]: RTV of the negative control group).

[4] = 15 mg/kg i.p. once a day for 10 days

Molecule	Ratio of IC50 of mutants to IC50 of CPT (H460 cells) [2]	killing activity compared to that of CPT [2]	other results
N[C@@H](Cc1ccc(N(CCCl)CCCl)cc1)C(=O)O [melphalan, reference compound]			cell survival rate, melphalan alone ([1]; melphalan 12.5˜50 μg/ml, 48 h, U266B1): 11.9˜100.9%
B1	0.38	significantly higher than that of CPT	
B2			relative tumor volume RTV [3, 4]: 1.58; tumor proliferation rate T/C(%) [3, 4]: 33.98%; Tumor volume TV beginning ([3]; 15 mg/kg i.p. once a day for 10 days, beginning): 127 ± 38.3 mm^3; Tumor volume TV ending ([3]; 15 mg/kg i.p. once a day for 10 days, ending): 212 mm^3; efficacy compared with NCPT-1.M1 ([3]; 15 mg/kg, COLO 205 xenograft, P<0.05): significantly weaker than that of NCPT-1.M1 with the same dosage; evaluation of efficacy (T/C ≦40% and P<0.05 means being effective) ([3]; both dosage groups of NCPT-1.M1 (5, 15 mg/kg), wtTRAIL 15 mg/kg): effective
B3	0.3	significantly higher than that of CPT	
B4			sensitivity of the cell line ([1]; U266 / U266B1): insensitive
B5	0.15	significantly higher than that of CPT	
B6	0.47	significantly higher than that of CPT	
